In experiment [1] the target is T1, human PD-L1 on cells (human, UniProt Q9NZQ7 19-290). Briefly: cell-based or functional assay.
Experiment [2] deals with T1, human PD-L1 on cells. The experiment in a line: competitive flow cytometry on 293T-PD-L1 cells, blocking of human-CD80-mFc binding. The procedure:
The blocking of PD-L1 binding to CD-80 by the antibodies was measured using a competitive flow cytometry method. 293T-PD-L1 cells were added to a 96-well plate at 1×10⁵ cells/well. Antibody dilutions with different concentrations (the initial working concentration was 200 nM, and 4-fold dilution was performed) were added to the cells, and the plate was incubated at 4° C. for 30 minutes. After the incubation, the plate was washed with PBS containing 2% FBS and centrifuged at 1200 rpm for 4 minutes, and the supernatants were discarded. Then human-CD80-mFc (2 μg/mL, manufacturer: ACRO) was added at 100 μL/well, and the plate was incubated in the dark at 4° C. for 30 minutes. After the incubation, the plate was washed with PBS containing 2% FBS. A fluorescently labeled goat anti-mouse IgG secondary antibody diluted at 1:200 was added at 100 μL/well, and the plate was incubated in the dark at 4° C. for 30 minutes. After the incubation, the plate was washed with PBS containing 2% FBS and tested on a flow cytometer. The mean fluorescence values were measured.
Background: A flow cytometer gives signals particle by particle.

In a further experiment the target is PD-L1-Biotin (UniProt Q9NZQ7 19-238, limits assumed, biotin label (site not stated)). Briefly: competitive flow cytometry: antibody premixed with PD-L1-Biotin, blocking of binding to 293T-hPD1 cells. How it is done:
The blocking of PD-L1 binding to its ligand PD-1 by the humanized antibodies was measured using a method based on competitive flow cytometry. 293T-hPD1 cells were added to a 96-well plate at 1×10⁵ cells/well. Different concentrations of the antibodies to be tested (the initial working concentration was 200 nM, and 4-fold dilution was performed) were mixed with a PD-L1-Biotin dilution (2 μg/mL, 50 μL/well), and the mixtures were incubated at room temperature for 30 minutes. Then the mixtures were added to the cells at 100 μL/well and well mixed. The plate was incubated at 4° C. for 60 minutes, and the blocking activity of the antibodies was measured using a PE fluorescently labeled streptavidin flow cytometry antibody. The mean fluorescence values were measured. Then antibody-antigen blocking reaction curves were generated using geometric values, and four-parameter plots were generated using the Graphpad Prism V6.0 software.

For experiment [3], the target named is T1, human PD-L1 on cells. Briefly: flow cytometry on MC38-hPD-L1 cells overexpressing human PD-L1. How it is done:
The binding activity of the humanized antibodies to PD-L1 was measured by flow cytometry. An MC38-hPD-L1 cell line that overexpresses human PD-L1 (manufacturer: Kyinno Biotechnology (Beijing) Co., Ltd.) was thawed, and the cells were added to a 96-well plate at 1×10⁵ cells/well. Different concentrations of the antibodies to be tested (the initial concentration was 100 nM, and 5-fold gradient dilution was performed) were added, and the plate was incubated at 4° C. for 30 minutes. A fluorescently labeled goat anti-human IgG secondary antibody (manufacturer: abcam, catalog No. 98596) was then added to detect antibodies bound to the cell surfaces. Antibody-antigen binding dose response curves were generated using geometric values, and four-parameter raw data were plotted using the Graphpad Prism V6.0 software.

Experiment [4] addresses T2, mouse PD-L1-hFc protein (ACRO Biosystems) (mouse, UniProt Q9EP73 19-238).
T2 construct: Bought protein; not shown: human Fc (hFc)
Briefly: ELISA, plate coated with mouse PD-L1-hFc. The procedure:
(§1) A 96-well plate was coated with 1 μg/mL mouse PD-L1-hFc protein (manufacturer: ACRO Biosystems) and incubated at 4° C. overnight. The plate was washed with wash buffer and blocked with a PBS solution containing 2% BSA for 60 minutes. After a wash with wash buffer, different concentrations of the antibodies to be tested (the initial concentration was 100 nM, and 4-fold gradient dilution was performed) were added, and the plate was incubated at 37° C. for 120 minutes. The plate was washed with wash buffer, and an HRP-labeled goat anti-human secondary antibody (diluted at 1:10,000) was then added. The plate was incubated at 37° C. for 60 minutes. The plate was washed with wash buffer, and TMB substrate solution was added at 100 μL/well. After 10-15 minutes of reaction at room temperature, 100 μL of 2 M hydrochloric acid stop solution was added to stop the reaction, and OD450 values were measured with a microplate reader.

The target of experiment [5] is T3, Cynomolgus/Rhesus macaque PD-L1-hFc protein (ACRO Biosystems) (Cynomolgus/Rhesus macaque, UniProt G7PSE7 19-238).
T3 construct: Bought protein; also called Cyno PD-L1; cynomolgus monkey PD-L1
Briefly: ELISA, plate coated with Cynomolgus/Rhesus macaque PD-L1-hFc. The procedure:
as §1, with “1 μg/mL Cynomolgus/Rhesus macaque PD-L1-hFc protein” for “1 μg/mL mouse PD-L1-hFc protein”, “buffer and then blocked with” for “buffer and blocked with”, “(diluted at 1:10,000, manufacturer: Jackson) was then” for “(diluted at 1:10,000) was then”, “stop the reaction.” for “stop the reaction, and OD450 values were measured with a microplate reader.”

T3 sequence (G7PSE7 entry or part of it limits assumed, form in doubt): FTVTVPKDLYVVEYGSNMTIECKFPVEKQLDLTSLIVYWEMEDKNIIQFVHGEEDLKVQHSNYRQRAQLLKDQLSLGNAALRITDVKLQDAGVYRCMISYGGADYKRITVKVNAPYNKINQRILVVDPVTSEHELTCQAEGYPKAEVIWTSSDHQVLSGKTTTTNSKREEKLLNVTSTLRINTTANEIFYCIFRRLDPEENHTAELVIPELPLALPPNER
T2 sequence (Q9EP73 19-238 limits assumed): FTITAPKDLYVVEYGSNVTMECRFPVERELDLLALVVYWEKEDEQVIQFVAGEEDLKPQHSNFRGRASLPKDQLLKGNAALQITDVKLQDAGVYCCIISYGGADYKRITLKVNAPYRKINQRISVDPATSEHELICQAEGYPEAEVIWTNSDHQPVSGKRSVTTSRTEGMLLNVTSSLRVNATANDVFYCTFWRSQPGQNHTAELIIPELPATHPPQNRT
PD-L1-Biotin, sequence (Q9NZQ7 19-238 limits assumed): as the sequence (G7PSE7 entry or part of it limits assumed, form in doubt) above, with T33A, S34A, N62S, Q68R, R82Q, L173F, A185T, I192T, L215H counted along it
T1 sequence (Q9NZQ7 19-290): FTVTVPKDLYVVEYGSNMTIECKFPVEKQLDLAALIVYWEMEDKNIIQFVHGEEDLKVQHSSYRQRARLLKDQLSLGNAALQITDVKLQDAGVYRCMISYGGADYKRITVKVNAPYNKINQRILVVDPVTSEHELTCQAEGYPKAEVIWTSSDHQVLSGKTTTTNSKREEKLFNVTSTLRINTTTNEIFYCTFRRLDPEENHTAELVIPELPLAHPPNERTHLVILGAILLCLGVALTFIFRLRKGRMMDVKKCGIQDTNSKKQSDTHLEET

B1: antibody 1 (VHH)
VHH: QVQLVESGGGLVQAGGSLRLSCAASGRSFSSSGMGWFRQAPGKDREFVATINSSGGDTYYRDSVEGRFTTSRDNAKNTMSLQMNDLKPEDTAVYYCAAKEGGGPSSIPAIYDYWGQGTQVTVSS
notes: expressed in mammalian cells
What is called IC50 is the concentration needed to halve the response being measured. For orientation: EC50 means the concentration at which the effect is half-maximal. A high value points to a less potent agent. B1: in the experiment with human PD-L1 on cells [1], the “IC50 (nM), NFAT-luciferase reporter gene assay” value (“IC50 (nM)” for short) was found to be 0.378 nM. Moreover, the IC50 is 2.6 nM in the experiment with human PD-L1 on cells [2] and 4.2 nM with PD-L1-Biotin. For the same molecule, the EC50 in the experiment with human PD-L1 on cells [3] was 0.041 nM; in experiment [5], 0.133 nM. Moreover, the binding result in experiment [4] is reported as “no binding (tested: initial concentration 100 nM)”.

B2: antibody 5 (VHH)
VHH: QVQLVESGGGLVQAGGSLRLSCAASGRSFSSSGMGWFRQAPGKDREFVATINSSGGDTYYADSVEGRFTTSRDNAKNTMSLQMNDLKPEDTAVYYCAAKEGGGPSSIPAIFDYWGQGTQVTVSS
Consider B2, for which, in the experiment with human PD-L1 on cells [1], the “IC50 (nM)” value is 0.305 nM. For the same molecule, the binding result in experiment [4] is “no binding (tested: initial concentration 100 nM)”. In addition, it took 0.034 nM to reach a half-maximal effect in experiment [5] (EC50).

B3: antibody 3 (VHH)
VHH: EVQLVESGGGSVQTGGSLRLSCVASGRDFLTYGMGWFRQAPGKEREFVASINWSGSMTYYADSVKGRFTISRDNAKNTVYLQMNSLKPGDTAVYICAARRGAVTYASSNEYEHWGQGTQVTVSS
As for B3, the “IC50 (nM)” value with human PD-L1 on cells [1] was 0.211 nM. For the same molecule, the IC50 in the experiment with human PD-L1 on cells [2] turned out to be 5.2 nM; with PD-L1-Biotin it was 1.1 nM. In addition, the EC50 with human PD-L1 on cells [3] amounted to 0.025 nM; in experiment [5], 0.04 nM. Moreover, the binding result in experiment [4] was “no binding (tested: initial concentration 100 nM)”.

B4: antibody 4 (VHH)
VHH: EVQLVESGGGLVQAGDSLRLSCTASGRDFLTYGMGWFRQAPGKEREFVASINWSGSMTYYADSVKGRFTISRDNAKNTVYLQMNSLKPGDTAVYICAARRGAVTYASSNEYEHWGQGTQVTVSS
As to B4, the “IC50 (nM)” value with human PD-L1 on cells [1] was 0.26 nM. In addition, the IC50 with human PD-L1 on cells [2] came out at 1.5 nM; with PD-L1-Biotin, 2.8 nM. For the same molecule, the EC50 with human PD-L1 on cells [3] was determined as 0.16 nM; in experiment [5], 0.034 nM. Besides, in experiment [4], the binding result is recorded as “no binding (tested: initial concentration 100 nM)”.

B5: antibody 3hu (VHH)
VHH: EVQLVESGGGLVQPGGSLRLSCAASGRDFLTYGMGWFRQAPGKGREFVASINWSGSMTYYADSVKGRFTISRDNAKNTVYLQMNSLKAEDTAVYICAARRGAVTYASSNEYEHWGQGTLVTVSS
notes: Humanized nanobody; also called humanized antibody 3
B5: the response with human PD-L1 on cells [3] was half-maximal at 0.025 nM (EC50).

B6: antibody 2 (VHH)
VHH: QVQLVESGGGLVQPGGSLSLSCVASGFTFSSYAMRWVRQAPGKEPEWVAGINTGSEIVVYANSVRGRFAISRDNARDTLFLQMNSLKPEDTAVYYCATGLVSAEHDGIWGQGTQVTVSS
For B6, the “IC50 (nM)” value with human PD-L1 on cells [1] amounted to 0.2 nM. The IC50 with human PD-L1 on cells [2] turned out to be 1.5 nM; with PD-L1-Biotin, 2.7 nM. Further, the EC50 with human PD-L1 on cells [3] came out at 0.14 nM; in experiment [5] it was 0.136 nM. Moreover, the binding result in experiment [4] is “no binding (tested: initial concentration 100 nM)”.
